According to publication PMC7617879:

Target: catalytic domain of MMP-14 (MMP-14CAT) (human)
Assay: enzyme inhibition assay

Ki: 0.76 nM
Substance: wild-type N-terminal domain of TIMP2 (N-TIMP2) (domain or fragment)
